{"source": "paper PMC7364852", "origin": "cited, not measured here", "molecular_target": "Spike RBD (SARS-CoV-2) (UniProt P0DTC2)", "note": "pKd: −log10 of the molar value."}
{"substance": "SBP1 (from UniProt Q9BYF1)", "values": [{"measurement": "pKd", "value": 7.33}]}
